From paper doi:10.1101/2025.10.28.684701

T1: MBP-CFLAP1 (AKS1) (Arabidopsis thaliana, UniProt Q9C690 1-379)
T1 sequence: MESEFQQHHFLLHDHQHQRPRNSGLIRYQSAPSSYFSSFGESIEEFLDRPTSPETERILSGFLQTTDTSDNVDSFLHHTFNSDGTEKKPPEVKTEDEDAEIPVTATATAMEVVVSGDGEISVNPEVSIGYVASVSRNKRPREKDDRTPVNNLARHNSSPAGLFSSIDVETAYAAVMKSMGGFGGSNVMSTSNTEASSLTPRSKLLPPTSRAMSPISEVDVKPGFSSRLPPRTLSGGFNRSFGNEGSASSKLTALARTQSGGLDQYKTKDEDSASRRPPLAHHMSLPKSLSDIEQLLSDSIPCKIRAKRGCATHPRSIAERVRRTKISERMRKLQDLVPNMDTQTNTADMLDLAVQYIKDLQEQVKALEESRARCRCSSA

B1: pCYP86A4 P1 probe (dsDNA)
DNA 1: TCGGAAAAGTACACTTGGGCTTATA
DNA 2: TATAAGCCCAAGTGTACTTTTCCGA
B2: pCYP86A2 P2 probe (dsDNA)
DNA 1: GATATTGCAGTTGCAGCGTACACAAGTCAG
DNA 2: CTGACTTGTGTACGCTGCAACTGCAATATC
B3: pCYP86A4 P2 probe (dsDNA)
DNA 1: CCACTTTGGTTAACATTTGAGGAAT
DNA 2: ATTCCTCAAATGTTAACCAAAGTGG
B4: pCYP86A2 P1 probe (dsDNA)
DNA 1: CTACGTACAGTTGTGTTCCATTTGTTACAA
DNA 2: TTGTAACAAATGGAACACAACTGTACGTAG
B5: pBDG1 P1 probe (dsDNA)
DNA 1: CGTCGTTGACCTCTGCATTACAATTGTGTC
DNA 2: GACACAATTGTAATGCAGAGGTCAACGACG
B6: pBDG1 P2 probe (dsDNA)
DNA 1: TGGCCACATGCCATCATATCACTTGTCCAT
DNA 2: ATGGACAAGTGATATGATGGCATGTGGCCA
B7: pCYP86A2 P3 probe (dsDNA)
DNA 1: GATCATTGGTTTACGATCACTTGCAAAGTC
DNA 2: GACTTTGCAAGTGATCGTAAACCAATGATC

Target: T1, MBP-CFLAP1 (AKS1)
Assay: EMSA

Binding result, binds:
B1, B2, B3, B4, B5, B6, B7
